Data on 13 sequences can be found in the DeepSol protein solubility set.

The data set is described as follows: soluble on expression in E. coli; label from the status in PepcDB or PDB records.
On to “MGSDKIHHHHHHMTVRTRVTDLLEIEHPILMGGMAWAGTPTLAAAVSEAGGLGIIGSGAMKPDDLRKAISELRQKTDKPFGVNIILVSPWADDLVKVCIEEKVPVVTFGAGNPTKYIRELKENGTKVIPVVASDSLARMVERAGADAVIAEGMESGGHIGEVTTFVLVNKVSRSVNIPVIAAGGIADGRGMAAAFALGAEAVQMGTRFVASVESDVHPVYKEKIVKASIRDTVVTGAKLGHPARVLRTPFARKIQEMEFENPMQAEEMLVGSLRRAVVEGDLERGSFMVGQSAGLIDEIKPVKQIIEDILKEFKETVEKLRGYIEE”, for which the “soluble on expression in E. coli” value is “soluble”.

As to “MGSDKIHHHHHHMTWRIVHIHQSEKMRLKLDNLVIKKQGDEFTIPLSDISIIVAEGGDTVVTLRLLSALSKYNIALIVCDNHHLPTGIYHSQNGHFRAYKKLQAQLSWAPLQKDKLWQIIIYFKITNQQDVLAMQEKSLSTIQLLSDYREHIELGDRTNREGHAAKVYFNELFGKQFVRLTQQETDAVNAGLNYGYTIFRAQMARIIAGYGLNALIGIFHKNEYNQFNLADDLMEPFRQIVDVWVYMNLREADFLTYQHRLELTNLLNAKIRYGKENCSVTVAMDKFVKGFIRCIEDKDTNQFFCPVVSSLEMEKL”, the “soluble on expression in E. coli” value was “not soluble”.

With “MGSDKIHHHHHHMVAIEKGGARLVFAPEVGGAVAAFTVDGREVLRPTAPQVDDALLTANFPLVSFCNRIPNGRFEWRGTSVTLPPNLEGHPHPLHGQGWRMPWAVEAIETDRALLVFEHPAGDWPWAYRAEQAFTLSETGFRVTLTVINTGEEDMPAGLGFHPYFPARPGERLAAQNDGVWLIDEDVLPTVRHAGRWGPDWAVGAPVAGHALIDHCYTGWNQRAVLSAPGRPDTVITASPDCAWLHVYAPPGEGYYCVEPCASRPNPFGEGETGMVTLCPGERRSIWMEIATG”, the “soluble on expression in E. coli” value is recorded as “not soluble”.

Regarding “MGSDKIHHHHHHMVDFNNTLESAVKSVLKWEEKQIITETTIIRDVQGKVSLFLKSEQKATESDISNLEEILQNDLNGFFTGKIFWEKCDKKDKLRIEIIKSIIEESREEWKTEDGVDFYICERPIAKKAWVNATQDVEPVWQYQEAECSNKAKVVTFYSFKGGMGRTTALAGIALNLIEQNKNVMMIDMDIEAPGLSTLFFDDIVVEKGLLDYLIERPLNEQCDIHDYVLEVTDPALLKENDGNLYLMPAGKVDETYLQKLARIDYQDNRENNLKSSIKNLLEKLDNTYHPDYILIDARAGFHDMGGIAVAQIPHGAVLIGNGSKQSWDGMTQVIRTIAKGNTEEFSIMIVDSMCERATAERAIEQRKKFLNMAYTVCMENYYNEDQVMPGIDAEGVEHQPEYIPYDSELMQGFELFSDGYNDSEIRVQAYRDLLTGSAYKDITKRIQSWFGE”, the “soluble on expression in E. coli” value was “not soluble”.

For “MGSDKIHHHHHHMVEAQRVKEDEDAIRQALASLKNATGIPVTMYASVQSDSRLLINQWVGLRTPALQNLIIDNGVGVGGRVLKTRRPVGVSDYTRANVISHDLDPVIQDEGLHSIVAVPVIVQREVRGVLYVGVHSPVRLGDKVIEEVTMTARVLEQELAINSASRRSDNPRGGVAKQGRMMNGAEWEQIRSTHSKLRMLANRIEQEELRQELEELCDQMVAPVHVKQTTKLSARELDVLSCVALGHTNVEAAEEMGIGAETVKSYLRSVMRKLGAHTRYEAVNAARRIGALP”, the “soluble on expression in E. coli” value is “not soluble”.

In the case of “MGSDKIHHHHHHMVIELKNEKVTVQFKEFGGALSSIKDQDGIEYLWQGNPAYWSSQAPVLFPICGSLRNDKGIYTSKKHSHRYGSIPRHGLVRKKNFRFEQLGKDSVVFTITPDKEMLMQYPYHFELKIIYTLKHTTIRTEYQVINKEKESIMPYFIGGHPGLNCPLFAGDRYEDYYLEFEKEETCTVPKSFPDTGLLDLQDRKIFLKGQKYLDLDYSLFTHDAITLDNLQSRSVSLRSKNHGGGLRLDFADFPYLILWSTANKSPFIALEPWSGLSTAVDESDYFEEKRNVSFVEPGQFDRNYFDITVL”, the “soluble on expression in E. coli” value is given as “not soluble”.

With “MGSDKIHHHHHHMVKGLDMIFYLHGFDATSPGNHEKMRQLQFIDPDVRLLSYSTLHPKHDMQHLLKEVAKQMQHTDDPEPLMVGVGLGAYWAERIGFLNGLKSVLINPNLHPENNMQGKIDRPEEYADIASKCVSEFRLKNTHRAMCIFSVNDDVLDCKANAQELSEYYAIEWDDVQPHKFPQLAAHLPKIKAFKLA”, the “soluble on expression in E. coli” value is recorded as “not soluble”.

As to “MGSDKIHHHHHHMVLQHYFRHYCRSFCSPDDKALFMQCSRLTQVDFDQLTLGAQVLEADSHGAKVYLLTDGNFLKVFRRKRLISSALLRPYSQRFVDNAARLAQLGIPTLEVISQHKLDLPGRTAVLYRPLPGRTLLQMSRDDGFSWDTYLPRLIELIRQLHRSGVYFRSLHLGNVVVTPDQRLGLIDVADMRFLRPPLSARMIRRNVQHMVRYIERENLGDRFPLAAFEAALLTR”, the “soluble on expression in E. coli” value is on record as “not soluble”.

Regarding “MGSDKIHHHHHHMVLSKFMPHNPKFAAKFAEAAQNAHATAQALVDLLENYTDVERKVQRVLDFEHEGDRITSEVTNLLAESFIVPFDREDILALNAELDDLVDDMEEAASKLSLYRIERPLPQMAQLARVVEQQCALLAQGMPLIEDGRMVDELRQLSQKIRALEDEGDRISDEVARHLYDGVTEVPQMIVAMRSGEILNLIENASDQAQRIARTVESILLKNA”, the “soluble on expression in E. coli” value is listed as “not soluble”.

As to “MGSDKIHHHHHHMVMNRSSLDGFFDPSYLENILGNFTQATGLRIEAVNYRGETFSIPGSLDRSPFCQCIRNNPQGNKRCIDSYKRATSEAVKWDEPYFFRCHAGLVIWAVPILSKDITLGSIICGQVLLWKPDRFFIQELQDISKGLKIDPEELNQAVPNLSIISADQAQAAANLLFVVVSHILKNNLRALEEEKAYKVLQQQLHDQILKRKKGPRRTDISYESILKDERRFLQYIRLGDKSRAFATLENLIIKIYTKSTGEPQLAKDRIVELAALTSRAAVEGGSDAEQAVTILSSFYKKLENMERVEEIIYFIKQIVDEFLENIFILADKKHLSLVKDARSFILHNHAQPLTIADAAQHLFISPSHLSRLFRQQLDCTFNDYLTRVRVEKAVELLKKPEFSVKDVALAVGFQNQSHFAKVFRKYIGVTPLVYRNSLF”, the “soluble on expression in E. coli” value is given as “not soluble”.

As for “MGSDKIHHHHHHMVRIALDPTPFHHDYDLLDFPDVTARLGYEYMQLTPHVDFGPFFRHPKADDDLVAALKKRAKDAGVTIPALLPVQRISWPEETQRVAAVRNIKRIIQLAVDLEVDTLNTEFSGRPERSEDSEDAFYRSMEELLPILEKEGIKFNIDPHPDDFVENGIEAWRVIRGLNSKQVGFVYVAPHSFHMGDQAEAILPAVGDRLGAVYLSDTFDHHKSHGLRYITNPPGNAVRVHQHLKIGDGDVNFEEIFSLLRSTGYLDREDALLVSNVFAEDEAADEVSRYQLEKIRSLIENA”, the “soluble on expression in E. coli” value is recorded as “not soluble”.

In the case of “MGSDKIHHHHHHMVRMEEPAVKQGFLHLQQQQTFGKKWRRFAAVLYGESGCALARLELQDVPEKTRRGEATRKVVRLSDCLRVAEVGSEASSPRDTSAFILETKERLYLLAAPSAERSDWIQAICLLAFPGQRKGSPGLEEKSGSPCMEENELYSSSTTGLCKEYMVTIRPTEASERCRLRGSYTLRTGVSALELWGGPEPGTQLYDWPYRFLRRFGRDKATFSFEAGRRCLSGEGNFEFETRHGNEIFQALEKVITVQKNATPSGPPSLPATGPMMPTVLPRPESPYSRPHDSLPSPSPGTLVPGMRPGAPEGEYAVPFDTVAHSLRKSFRGLLTGPPPHLPDPLYDSIQEDPGAPLPDHIYDEPEGVAALSLYDRTQRPSGETWREQATADGGPSSLQQDSSVPDWPQATEYDNVILKKGP”, the “soluble on expression in E. coli” value was “not soluble”.

As for “MGSDKIHHHHHHMVRQRMTGKERREQLISIGRAVFAERGFDGASVEEIAARANVSKPVVYEHFGGKEGLYAVVIDREMVKLEAMITGSLQHGRSRYRIEQAVLALLTYVEDETDGFLILVRDMRPGERRSYGTLLNDATTQVSHILGNAFTRSGLNAEYANLYGQALVGMVSMTAQWWLDERTPPKEEVAAHIVNLCWNGLTGMEADPKLTPISSAEGAIFGQEKESEA”, the “soluble on expression in E. coli” value is on record as “not soluble”.
